Source: publication PMC3025549

Target: recombinant mjRNAP (RNA polymerase of M. jannaschii), wild type (M. jannaschii) (UniProt Q58445)
Assay: native gel or EMSA

B1: mjTFIIB K87-A (natural protein)
chain: MVWLMEALKTKENETTKEKKLTTKVEKSEKKEENVREEEIVCPICGSKEVVKDYERAEIVCAKCGCVIKEKLFDIGPEWRAFDHEQAIKRCRVGAPMTYSVDYNEPIIIKENGEIKVVKIGELIDKIIENSENIRREGILEIAKCKGIEVIAFNSNYKFKFMPVSEVSRHPVSEMFEIVVEGNKKVRVTRSHSVFTIRDNEVVPIRVDELKVGDILVLAKELPNIEEDIEIDKKFSKILGYIIAEGYYDDKKIVLSYDYNEKEFINETIDYFKSLNSDITIYSKDLNIQIEVKNKKIINLLKKLRVKNKRIPSIIFKSPYEIKKSFIDGIFNGKDAKVFVSKELAEDVIFLLLQIKENATINKKSINDIEVYEVRRITNIYTNRKLEKLINSDFIFLKIKEINKVEPTSGYAYDLTVPNAENFVAGFGGFVLHNTIHDKGLSTVIDWRNKDSYGKDLSANKRAQLYRLRKWQRRIRVSDAAERNLAFALSELDRITSKLGLPRHVRENAAIIYRGAVEKGLIRGRSIEGVVAAAIYAACRRCRVPRTLDEIAEASRVDRKEIGRTYRFLARELNIKLTPTNPIDYVPRFASELGLPGEVESKAIQILQQAAEKGLTSGRGPTGVAAAAIYIASVLLGCRRTQREVAEVAGVTEVTIRNRYKELTEHLDIDVTL
  recruitment activity relative to wild type (% of wild type): 140
